According to the nanobody polyreactivity screen of Harvey et al. (2022):

Assay: yeast display, Sf9 membrane polyspecificity reagent, FACS + sequencing; frameworks hold sequencing errors
Outline: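 After 36–48 hours of galactose induction, yeast (Saccharomyces cerevisiae BJ5465) displaying a synthetic nanobody library were stained at 4 °C for 1 hour with 10% biotinylated, detergent-solubilized Sf9 membrane reagent. Streptavidin microbeads enriched the stained cells before FACS sorting into low and high (top ~1%) gates on anti-HA and streptavidin fluorescence. Each clone's polyreactivity label reflects its gate of origin.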

Sequence	polyreactivity (PSR sort gate)
QVQLVESGGGLVQAGGSLRLSCAASGRIFSNYAMGWYRQAPGKERELVAAISRGGGRTFYADSVKGRFTISRDNAKNTVYLQMNSLKPEDTAVYYCATRSYYVKGDYWGQGTQVTVSS	high polyreactivity
QVQLVESGGGLVQAGGSLRLSCAASGSIFYKNAMAWYRQAPGKERELVAAITWSGGSTYYADSVKGRFTISRDNAKNTVYLHMNSLKPEDTAVYYCAAGLYRYRKYGYWGQGTQVTVSS	low polyreactivity
QVQLVESGGGLVQAGGSLRLSCAASGIIFAFYAMGWYRQAPGKERELVATISKSGGRTYYADSVKGRFTISRDNAKNTVYLQMNSLNPEDTAVYYCAARIQYAFGADYYWGQGTQVTVSS	low polyreactivity
QVQLVESGGGLVQAGCSLRLSCAASGRTFYTVYARGWYRQAPGKERELVAAITKDGTTTYYADSVKGRFTISRDNAKNTVYIEMNSLKQEDTAVYYCNADVSQPWGGGEYNYWGQGTQVTVSS	high polyreactivity
QVQLVESGGGLVQAGGSLRLSCAASGIIFDSNVMGWYRQAPGKERELVAAISRSGSRTYYADSVKGRFTISRDNSKNTVYLEMNSLKPEDTAVYYCATDSHTADEYEHWGQGTQVTVSS	high polyreactivity
QVQLVESGGGLVQAGGSLRLSCAASGLILSSNARGWYRQAPGKETELVAAITWDGDRTYADSVKGRFTISRDNAKNTVYLQMNSLKPEDTAVYYCAAYPYYYYGYDYWGQGTQVTVSS	low polyreactivity
QVHLVDSGGGLVQAGGSLRLSCAASGRIIDLYAMGCYRQAPGKEWELVAVIDIRDTSTYYADSVKGRFTISRDNAKNTVYLEMNSLKPEDTSVYYCAADYLVYDWYTYGYWGQGTQVTVSS	high polyreactivity
QVQLVESGGGLVQAGGSLRLSCAASGYIFYGYVMGWYRQAPGKERELVAGITYSGGGGTHYADSVKGRFTISRDNAKNTVYLQMNSLKPEDNAVYYCAKADPQLNRTYYSYGMDYWGQGTQVTVSS	low polyreactivity
QVQLVESGGGLVQAGGSLRLSCDASGSIFGGYAMGWYRQAHGKARELVAGISSGGSTYYADSVKGRFTISRDNAKNTVYLQMNSLKPEDTAVYYCATSTYAYRRNSYYYTRPRFGYCGQGTQVTVSS	high polyreactivity
QVQLVESGGGLVQAGGSLRLSCAASGRIFGRYAMGWYRQAPGKERELVAAISSRGSRTYYADSVKGRFTISRDNAKNTVYLQMNSLKPEDTAVYYCAATWLSNPSDYDYWGPGTQVTVSS	high polyreactivity
QVQLVESGGGLVQAGGSLRLSCAASGRTFHGYALGWYRQAPGKERELVARINWSDGRTYYADSVKGRFTISRDNAKNTVYLQMNSLKPEDTAVYYCAADKTVSYAPAWYYYWGQGTQVTVSS	low polyreactivity
QVQLVESGGGLVQAGGSLRLSCAASGRTIRGNAMGWYRQAPGKERELVAAIRWNGGSTYYADSVKGRFTISRDNAKNTVYLQMNSLKPEDSAVSYCAVSYWYSRYDYWGQGTQVTVSS	high polyreactivity
QVQLVESGGGLVQAGGSLRLSCAASGSTFGFNAMGWYRQAPGKERELVAAISRSGTRTYYADSVKGRFTISRDNAKNTVYLQMNSLKPEDTAVYYCAADSTLSRYDYWGQGTQVTVSS	high polyreactivity
QVQLVESGGVLVQAGGSLRLSCAASGRIFRANTMGWYRQAPGKEMELVANISKNGGRTYYADSVKGRFTISRDNAKNTVYLQMNSLKPEDTAVYYFNAEWRGWRFLEYGSYIYQSGYWGQGTQVTVSS	high polyreactivity
QDLLVDSGGGLLQAGGSLRLSCAASGSIFYTNTMGWYRHAPGKERALVAAISYSDSTTYYADSVKGRFTISRDNAKNSVYLQMNSLKPEDTAVYYCAAQQFYTYYQTYDYWGQGTQVTVSS	high polyreactivity
QDQHVESGGGLVQAGGSLRISSAASGSIYFYNAMGWYRQAPGQERELVAAITTRGGSTYYADSVKGRFTISRDNAKNTVYLQMNSLKPEDTAVYYCARSSRGKLDYWGQGTQVTVSS	low polyreactivity
QVHLVESGGVLVQAGGSLRLSCAAYGSTFSWNAMGWYRQSPWKESELVAPITTRGGSTYYADSVKGRFTISRDNAQNTVYLEMNSLKPEDTAVYDCAASYGYRGGWGPGVDYWGQCTQVTVSS	low polyreactivity
QVQLVESGGGIVQAGGSLRLSCAASGSTLDDYVMGWYRHAPGKDRQLVAAISSSGSGTYYADSVKGRFTISRDNAKNTVYLQMNSLKQEDTAVYYCAAAYSYSGYGYYTYDYWGLGTQVTVSS	low polyreactivity
QVQLVESGGGLVQAGGSLRLSCAASGRTFYSYAMGWYRPAPGKERELVAAINTSGGRTHYADSVKGRFTISRDNGKNTVYLQMNSLKPEDTAVYYCAAEVFRTRTWEYYYWGQGTQVTVSS	high polyreactivity
QVQLVESGGGLVQAGGSHRLSCAASGFTFGYYVMGWYRQAPGKERELVAAISKRGSSTYYADCVKGRFTISRDNANTTVYLQMNSLKPVDTAVYYCAADGVYSHKDGHWGQGTQVTVSS	high polyreactivity
QVQLVESGGGLVQAGGSLRLSCAASGRIFPANVMGWYRQAPGKETELVAAITRGDSTNYADSVKGRFTISRDNAKNTVYLQMTSLKPEDTAVYYCAAYGRYLLWDYDYWGQGTQVTVSS	low polyreactivity

Sequence	polyreactivity (PSR sort gate)
QVQLVESWGGLVQAGGSLRLSCAASGITFTVYAMGWYRQAPGKEREFVAAISSSGSTTYAVSVKGRLTFSRDNAKNTVYLQMNSLKPEDTAVYYCAAEGYYRFSTAYFRRKYEYCGQGTQVTVSS	low polyreactivity
QVQLVESGGGLVQAGGSLRLSCAASGIIFYYYDMGWYRQAPGKERELVAAISWGAGDTYYADSVKGRFTISRDNAKNTVYLQMNSLKPEDTAVYYCAAEFSRSDYQEYDYWGQGTQVTVSS	low polyreactivity
QVQLVESGGGLVQAGGSLRLSCAASGSIFPYNAMGWYRQPPGKERELVATISSGGSTNYADSVKGRFTISRDNAKNTVYLQMNSLKPEDTAVFYCAADVIVFYYAPNYWGDIEYGYWGQGTQVTVSS	low polyreactivity
QVQLLESGGGLVQAGGSLRLSCAASGFNFGVYAMGWYRQAPGKERELVAAITRSGGSTYYADSVKGRYTISRDNAKNSVYLQMNSLNPEDTAVYYCAARARDHYGYWGQGTQVSVSS	high polyreactivity
QVQLVESCGGIVQAGGSHRLSCAASGSIFAWYAMGWYRQAPGKERELVAAITYTGGRTYYADSVKGRFTISRDIAKYTVYLQMISLNPEDTAVFYCAKDGPATVRRGYDYWGQGTQVTVSS	high polyreactivity
QVQLVESGGGLVQAGGSLRLSCAASGRIFSNNAMGWYRQAPGNERELVAAISSSGGSTYYADSVKGRFTISRDNAKNTVYLQMNSLKPEDTAVSYCNVGRRKIDDYWGQGTQVTVSS	high polyreactivity
QVQLVESGGGLVQAGGSLRLSCAASGSTFVTYAMGWYRQAPGKERELVASISRGGSTKYADSVKGRFTISRDNAKNTVYLQMNSLKPEDTAVYYCAAKAKNYRLGPFDYWGQGTQVTVSS	low polyreactivity
QVQHVESGGGLVQAGGILRLSSAASGSTFVKNGMGWSRQAPGKERELVAAISGRRGSTYYADSVKGRFTISRDNAKNTVYLQMNSLKPEDTAVYYCNKAYSVAYTYNYWGQGTQVTVSS	high polyreactivity
QVQLVESGGGLVQAGGSLRISCAASGRTLGGYTMGWYRQAPGKERELVAAITGSGSNTYYADSVKGRFTISRDNAKNTVYLQMNSLKPEDTAVYYCAAPYSYRTWYPYGYWGQGTQVTLSS	high polyreactivity
QVQLVESGGGLVQAGGSLRLNCAASGITCEYYAMGWYREAPGKERDLVAAISWSGGSTYYADSVKGRFTNSRDNANNTVYLQINSLKTEDTAVYDFYAVGFTYLDLYGYWGQGTQLTVSS	high polyreactivity
QDQLVESRGVLVQAGGSLRLTCAASGRTFYLNAMGWNRQATGKEREFVAAITWSSGSTYYADSVKGRFTISRDNAMNTVYLQMNSLKPEDTAVYYCAAAGRWSAYMYSWGQGTQVTVSS	high polyreactivity
QVQLVESGGGLVQAGGSLRLTCAASGSTIVRNAMGWYRQAPGKEREFVAAIDWRGGSTSYADSVKGRFTISRDNAKNTVYLQMHSLKPADTAVYYCAAARRARELRSGQGSTYGNEYWGLGTQVTVSS	high polyreactivity
QVQLVESGGGLVQAGGSLRLSCAASGRTFRSDNALGWYRQPPGKERELVAAISQGGGTYYADSVKGRFTISRDNAKKTVYLQMNSLKPEDTAVYYCARDAYYADPSLWYYTYDYWGQGTQVTVSS	low polyreactivity
QVQLVESGGGLVQAGGSLRLSCAASGFTFYVNAMGWYRQAPGKERELVAAISSSGTRTYYADSVKGRFTISRDNAKNTVYLQMNSLKPEDTAVYYCAARGQAYSGDRMYYWGQGTLVTVSS	high polyreactivity
QFQLVESGGGLVQAGGSLRLSCAASGRTFVPYVMGWYRQAPGKERELVASITSGGSTYYADSVKGRFTISRDNAKNTVYLQMNSLNPEDTAVYYCATRQSAERWGYYYWGQGTQVTVSS	low polyreactivity
QVQLVESRGGLVQAGGSLRLSSAASGITFGRNPMGWYRQAPGKERELVAAIESGGNTYADSVKGRFTISRDNAKNTVYLQMNSLKPEDTAVYYCAVDGGEFSSYGYWGQGTQVTVSS	low polyreactivity
QVQLEESGGGVVQAGGSLRLSCAASGIIFYRYAMGCYRQAPGKERELVAAISKNGGRTYYADSVKGRFTISRDNAKNTVYLQMNSLKPEDTAVYYCNARYGYYLYWGQGTQVTVSS	high polyreactivity
QVQLVESGGGLVQAGGSLRLSCAASGRTIVFNAMGWYRQAPGKERELVAAITKNGGSTYYADSVKGRFTISRDNAKNTVYLQMNSLKPEDTAVYYCAVRRGYPFFYWGQGTQVTVSS	low polyreactivity
QVQLVESGGGLVQAGGSLRLSCAASGRTFRIYAMGWYRPATGKEREMVATISGRGGNTYYADSVKGRFTISRDNAKNTVYLQMNSLKPDDTAVYYCNTVYLPNFQWFDYWGQGTQVTVSS	high polyreactivity
QVQLVESGGGLVQAGGSLRLSCAASGRTFYVNAMGWYRQAPGKERELVARITSGGSTYYADSVKGRFTISRDKAKNTVYLQMNSVKPEDTAVYYCAADYVSLSVFSYWAWYDYWGQGTQVTVSS	low polyreactivity
